Biological target: Replication Protein A (RPA) heterotrimer from Pyrococcus abyssi, wild type (Pyrococcus abyssi)
Assay: BLI; RPA or RPA^ΔWH nucleoprotein filaments on a 3'-TEG-biotin 50-nt ssDNA held on streptavidin sensors; PriSL (1.56-100 nM) or PolD (15.62-1000 nM) in solution; steady-state analysis; 25 °C, buffer E with 0.2 mg/ml BSA

Kd: 24 nM
B1: DNA primase PriSL (PriS-PriL heterodimer) from P. abyssi, in solution (complex)
chain 1: MLLREVTKEERKEFYSNEWNAKQIPDFILQNLDKREFGFDHTGEGPSDRKNSYTDVRDLEDYIKATAPYAVYSSVAFYEKPQEMEGWLGAELVFDIDAKDLPLRRCNHEPGKVCPICLNDAKEIARDTLIVLKEELGFEDVHVVYSGRGYHIRVMDGWALSLDSKSRERILSFISASEIEDHSEFRKMLLERRGWFVLNHGYPRVFRLRFGYFILRVKVEHLINFGIRKNIAKRILDNKETIYEEFVRKGILAAFPDGVGIESLAKLFALSTRFSKAYFDGRVTVDLKRILRLPSTLHSKVGLIAKYIGNNERDVMRFNPFKHAVPKFRRKEVKEEYKRFLEENF
chain 2: MLDPFSEKAKELLKEFGSINDFLNSIPRIVDVEEVIERVKIASDRKLLEGFVDIEDIKDLAQFYALLGALSYSPYGLELELVKKANILLYSERIRREKEIRPEEISLRINKAIEFPIDDLKKIERVFGKLPEYTIHLAEFLDLIPGERLSEYYIYNGNVYLRKEDLIKVWMKAFERNIEKSVNMLYEIRDELPGFFREVLGGIKEVAEQEFGKSGEVKAGTLRPDLFPPCVKNALKGVPQGLRNYAITVLLTSFLSYARICPNPPRRNVRVKDCIDDIRIITDEILPLIIEAANRCSPPLFEDQPNEIKNIWYHLGFGYTANPKLEDSGNSTWYFPPNCDKIRANAPQLCTPDKHCKYVRNPLTYYLRRLYLEGRKNASKGGNERGEKRVLQQ
